# Assay results published in the supplement of paper PMC5998384.
# Legend:
# HeLa Kyoto [1] = assay: solubility change mitosis vs G1/S (difference of NP-40 vs SDS log2 ratios) (log2 ratio difference); higher = more soluble in mitosis
# HeLa Kyoto [2] = assay: solubility in G1/S (NP-40 vs SDS abundance) (log2 ratio); higher = more soluble; settings: cell cycle stage: G1/S
# 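Wherever solubility change mitosis vs G1/S (difference of NP-40 vs SDS log2 ratios) is given: synchronized HeLa Kyoto cells (double thymidine block for G1/S, nocodazole release for mitosis), protein amounts in NP-40 versus SDS lysates quantified by mass spectrometry, three biological replicates.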
# 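Wherever solubility in G1/S (NP-40 vs SDS abundance) is given: HeLa Kyoto cells arrested at G1/S by double thymidine block, proteins quantified by TMT10plex mass spectrometry in mild NP-40 versus SDS extracts, three biological replicates.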
sequence,measurement,setting,value
MSLERELRQLSKAKAKAQRAGQRREEAALCHQLGELLAGHGRYAEALEQHWQELQLRERADDPLGCAVAHRKIGERLAEMEDYPAALQHQHQYLELAHSLRNHTELQRAWATIGRTHLDIYDHCQSRDALLQAQAAFEKSLAIVDEELEGTLAQGELNEMRTRLYLNLGLTFESLQQTALCNDYFRKSIFLAEQNHLYEDLFRARYNLGTIHWRAGQHSQAMRCLEGARECAHTMRKRFMESECCVVIAQVLQDLGDFLAAKRALKKAYRLGSQKPVQRAAICQNLQHVLAVVRLQQQLEEAEGRDPQGAMVICEQLGDLFSKAGDFPRAAEAYQKQLRFAELLDRPGAERAIIHVSLATTLGDMKDHHGAVRHYEEELRLRSGNVLEEAKTWLNIALSREEAGDAYELLAPCFQKALSCAQQAQRPQLQRQVLQHLHTVQLRLQPQEAPETETRLRELSVAEDEDEEEEAEEAAATAESEALEAGEVELSEGEDDTDGLTPQLEEDEELQGHLGRRKGSKWNRRNDMGETLLHRACIEGQLRRVQDLVRQGHPLNPRDYCGWTPLHEACNYGHLEIVRFLLDHGAAVDDPGGQGCEGITPLHDALNCGHFEVAELLLERGASVTLRTRKGLSPLETLQQWVKLYRRDLDLETRQKARAMEMLLQAAASGQDPHSSQAFHTPSSLLFDPETSPPLSPCPEPPSNSTRLPEASQAHVRVSPGQAAPAMARPRRSRHGPASSSSSSEGEDSAGPARPSQKRPRCSATAQRVAAWTPGPASNREAATASTSRAAYQAAIRGVGSAQSRLGPGPPRGHSKALAPQAALIPEEECLAGDWLELDMPLTRSRRPRPRGTGDNRRPSSTSGSDSEESRPRARAKQVRLTCMQSCSAPVNAGPSSLASEPPGSPSTPRVSEPSGDSSAAGQPLGPAPPPPIRVRVQVQDHLFLIPVPHSSDTHSVAWLAEQAAQRYYQTCGLLPRLTLRKEGALLAPQDLIPDVLQSNDEVLAEVTSWDLPPLTDRYRRACQSLGQGEHQQVLQAVELQGLGLSFSACSLALDQAQLTPLLRALKLHTALRELRLAGNRLGDKCVAELVAALGTMPSLALLDLSSNHLGPEGLRQLAMGLPGQATLQSLEELDLSMNPLGDGCGQSLASLLHACPLLSTLRLQACGFGPSFFLSHQTALGSAFQDAEHLKTLSLSYNALGAPALARTLQSLPAGTLLHLELSSVAAGKGDSDLMEPVFRYLAKEGCALAHLTLSANHLGDKAVRDLCRCLSLCPSLISLDLSANPEISCASLEELLSTLQKRPQGLSFLGLSGCAVQGPLGLGLWDKIAAQLRELQLCSRRLCAEDRDALRQLQPSRPGPGECTLDHGSKLFFRRL [TONSL],solubility change mitosis (log2),HeLa Kyoto [1],0.119
same,solubility in G1/S (log2),HeLa Kyoto [2],-0.116
MPPQLQETRMNRSIPVEVDESEPYPSQLLKPIPEYSPEEESEPPAPNIRNMAPNSLSAPTMLHNSSGDFSQAHSTLKLANHQRPVSRQVTCLRTQVLEDSEDSFCRRHPGLGKAFPSGCSAVSEPASESVVGALPAEHQFSFMEKRNQWLVSQLSAASPDTGHDSDKSDQSLPNASADSLGGSQEMVQRPQPHRNRAGLDLPTIDTGYDSQPQDVLGIRQLERPLPLTSVCYPQDLPRPLRSREFPQFEPQRYPACAQMLPPNLSPHAPWNYHYHCPGSPDHQVPYGHDYPRAAYQQVIQPALPGQPLPGASVRGLHPVQKVILNYPSPWDHEERPAQRDCSFPGLPRHQDQPHHQPPNRAGAPGESLECPAELRPQVPQPPSPAAVPRPPSNPPARGTLKTSNLPEELRKVFITYSMDTAMEVVKFVNFLLVNGFQTAIDIFEDRIRGIDIIKWMERYLRDKTVMIIVAISPKYKQDVEGAESQLDEDEHGLHTKYIHRMMQIEFIKQGSMNFRFIPVLFPNAKKEHVPTWLQNTHVYSWPKNKKNILLRLLREEEYVAPPRGPLPTLQVVPL [TRAF3IP2],solubility change mitosis (log2),HeLa Kyoto [1],0.168
same,solubility in G1/S (log2),HeLa Kyoto [2],-0.199
MWCLHCNSERTQSLLELELDSGVEGEAPSSETGTSLDSPSAYPQGPLVPGSSLSPDHYEHTSVGAYGLYSGPPGQQQRTRRPKLQHSTSILRKQAEEEAIKRSRSLSESYELSSDLQDKQVEMLERKYGGRLVTRHAARTIQTAFRQYQMNKNFERLRSSMSENRMSRRIVLSNMRMQFSFEGPEKVHSSYFEGKQVSVTNDGSQLGALVSPECGDLSEPTTLKSPAPSSDFADAITELEDAFSRQVKSLAESIDDALNCRSLHTEEAPALDAARARDTEPQTALHGMDHRKLDEMTASYSDVTLYIDEEELSPPLPLSQAGDRPSSTESDLRLRAGGAAPDYWALAHKEDKADTDTSCRSTPSLERQEQRLRVEHLPLLTIEPPSDSSVDLSDRSERGSLKRQSAYERSLGGQQGSPKHGPHSGAPKSLPREEPELRPRPPRPLDSHLAINGSANRQSKSESDYSDGDNDSINSTSNSNDTINCSSESSSRDSLREQTLSKQTYHKEARNSWDSPAFSNDVIRKRHYRIGLNLFNKKPEKGVQYLIERGFVPDTPVGVAHFLLQRKGLSRQMIGEFLGNRQKQFNRDVLDCVVDEMDFSTMELDEALRKFQAHIRVQGEAQKVERLIEAFSQRYCICNPGVVRQFRNPDTIFILAFAIILLNTDMYSPNVKPERKMKLEDFIKNLRGVDDGEDIPREMLMGIYERIRKRELKTNEDHVSQVQKVEKLIVGKKPIGSLHPGLGCVLSLPHRRLVCYCRLFEVPDPNKPQKLGLHQREIFLFNDLLVVTKIFQKKKNSVTYSFRQSFSLYGMQVLLFENQYYPNGIRLTSSVPGADIKVLINFNAPNPQDRKKFTDDLRESIAEVQEMEKHRIESELEKQKGVVRPSMSQCSSLKKESGNGTLSRACLDDSYASGEGLKRSALSSSLRDLSEAGKRGRRSSAGSLESNVEFQPFEPLQPSVLCS [IQSEC1],solubility change mitosis (log2),HeLa Kyoto [1],-0.0422
same,solubility in G1/S (log2),HeLa Kyoto [2],-0.0654
MAGPQMGGSAEDHPPRKRHAAEKQKKKTVIYTKCFEFESATQRPIDRQRYDENEDLSDVEEIVSVRGFSLEEKLRSQLYQGDFVHAMEGKDFNYEYVQREALRVPLIFREKDGLGIKMPDPDFTVRDVKLLVGSRRLVDVMDVNTQKGTEMSMSQFVRYYETPEAQRDKLYNVISLEFSHTKLEHLVKRPTVVDLVDWVDNMWPQHLKEKQTEATNAIAEMKYPKVKKYCLMSVKGCFTDFHIDFGGTSVWYHVFRGGKIFWLIPPTLHNLALYEEWVLSGKQSDIFLGDRVERCQRIELKQGYTFFIPSGWIHAVYTPVDSLVFGGNILHSFNVPMQLRIYEIEDRTRVQPKFRYPFYYEMCWYVLERYVYCVTQRSHLTQEYQRESMLIDAPRKPSIDGFSSDSWLEMEEEACDQQPQEEEEKDEEGEGRDRAPKPPTDGSTSPTSTPSEDQEALGKKPKAPALRFLKRTLSNESEESVKSTTLAVDYPKTPTGSPATEVSAKWTHLTEFELKGLKALVEKLESLPENKKCVPEGIEDPQALLEGVKNVLKEHADDDPSLAITGVPVVTWPKKTPKNRAVGRPKGKLGPASAVKLAANRTTAGARRRRTRCRKCEACLRTECGECHFCKDMKKFGGPGRMKQSCIMRQCIAPVLPHTAVCLVCGEAGKEDTVEEEEGKFNLMLMECSICNEIIHPGCLKIKESEGVVNDELPNCWECPKCNHAGKTGKQKRGPGFKYASNLPGSLLKEQKMNRDNKEGQEPAKRRSECEEAPRRRSDEHSKKVPPDGLLRRKSDDVHLRKKRKYEKPQELSGRKRASSLQTSPGSSSHLSPRPPLGSSLSPWWRSSLTYFQQQLKPGKEDKLFRKKRRSWKNAEDRMALANKPLRRFKQEPEDELPEAPPKTRESDHSRSSSPTAGPSTEGAEGPEEKKKVKMRRKRRLPNKELSRELSKELNHEIQRTENSLANENQQPIKSEPESEGEEPKRPPGICERPHRFSKGLNGTPRELRHQLGPSLRSPPRVISRPPPSVSPPKCIQMERHVIRPPPISPPPDSLPLDDGAAHVMHREVWMAVFSYLSHQDLCVCMRVCRTWNRWCCDKRLWTRIDLNHCKSITPLMLSGIIRRQPVSLDLSWTNISKKQLSWLINRLPGLRDLVLSGCSWIAVSALCSSSCPLLRTLDVQWVEGLKDAQMRDLLSPPTDNRPGQMDNRSKLRNIVELRLAGLDITDASLRLIIRHMPLLSKLHLSYCNHVTDQSINLLTAVGTTTRDSLTEINLSDCNKVTDQCLSFFKRCGNICHIDLRYCKQVTKEGCEQFIAEMSVSVQFGQVEEKLLQKLS [KDM2B],solubility change mitosis (log2),HeLa Kyoto [1],0.226
same,solubility in G1/S (log2),HeLa Kyoto [2],-0.295
MLSPQRALLCNLNHIHLQHVSLGLHLSRRPELQEGPLSTPPPPGDTGGKESRGPCSGTLVDANSNSPAVPCRCCQEHGPGLENRQDPSQEEEGAASPSDPGCSSSLSSCSDLSPDESPVSVYLRDLPGDEDAHPQPSIIPLEQGSPLASAGPGTCSPDSFCCSPDSCSGASSSPDPGLDSNCNALTTCQDVPSPGLEEEDERAEQDLPTSELLEADDGKIDAGKTEPSWKINPIWKIDTEKTKAEWKTTENNNTGWKNNGNVNSSWKSEPEKFDSGWKTNTRITDSGSKTDAGKIDGGWRSDVSEEPVPHRTITSFHELAQKRKRGPGLPLVPQAKKDRSDWLIVFSPDTELPPSGSPGGSSAPPREVTTFKELRSRSRAPAPPVPPRDPPVGWALVPPRPPPPPVPPRRKKNRPGLQPIAEGQSEEGRAVSPAAGEEAPAAKEPGAQAGLEVRSSWSFAGVPGAQRLWMAEAQSGTGQLQEQKKGLLIAVSVSVDKIISHFGAARNLVQKAQLGDSRLSPDVGHLVLTTLCPALHALVADGLKPFRKDLITGQRRSSPWSVVEASVKPGSSTRSLGTLYSQVSRLAPLSSSRSRFHAFILGLLNTKQLELWFSSLQEDAGLLSLLYLPTGFFSLARGGCPSLSTELLLLLQPLSVLTFHLDLLFEHHHHLPLGPPQAPAPPGPPPALQQTMQAMLHFGGRLAQSLRGTSKEAASDPSDSPNLPTPGSWWEQLTQASRVYASGGTEGFPLSRWAPGRHGTAAEEGAQERPLPTDEMAPGRGLWLGRLFGVPGGPAENENGALKSRRPSSWLPPTVSVLALVKRGAPPEMPSPQELEASAPRMVQTHRAVRALCDHTAARPDQLSFRRGEVLRVITTVDEDWLRCGRDGMEGLVPVGYTSLVL [RUSC1],solubility change mitosis (log2),HeLa Kyoto [1],-0.133
same,solubility in G1/S (log2),HeLa Kyoto [2],0.182
MEKYVRLQKIGEGSFGKAILVKSTEDGRQYVIKEINISRMSSKEREESRREVAVLANMKHPNIVQYRESFEENGSLYIVMDYCEGGDLFKRINAQKGVLFQEDQILDWFVQICLALKHVHDRKILHRDIKSQNIFLTKDGTVQLGDFGIARVLNSTVELARTCIGTPYYLSPEICENKPYNNKSDIWALGCVLYELCTLKHAFEAGSMKNLVLKIISGSFPPVSLHYSYDLRSLVSQLFKRNPRDRPSVNSILEKGFIAKRIEKFLSPQLIAEEFCLKTFSKFGSQPIPAKRPASGQNSISVMPAQKITKPAAKYGIPLAYKKYGDKKLHEKKPLQKHKQAHQTPEKRVNTGEERRKISEEAARKRRLEFIEKEKKQKDQIISLMKAEQMKRQEKERLERINRAREQGWRNVLSAGGSGEVKAPFLGSGGTIAPSSFSSRGQYEHYHAIFDQMQQQRAEDNEAKWKREIYGRGLPERGILPGVRPGFPYGAAGHHHFPDADDIRKTLKRLKAVSKQANANRQKGQLAVERAKQVEEFLQRKREAMQNKARAEGHMVYLARLRQIRLQNFNERQQIKAKLRGEKKEANHSEGQEGSEEADMRRKKIESLKAHANARAAVLKEQLERKRKEAYEREKKVWEEHLVAKGVKSSDVSPPLGQHETGGSPSKQQMRSVISVTSALKEVGVDSSLTDTRETSEEMQKTNNAISSKREILRRLNENLKAQEDEKGKQNLSDTFEINVHEDAKEHEKEKSVSSDRKKWEAGGQLVIPLDELTLDTSFSTTERHTVGEVIKLGPNGSPRRAWGKSPTDSVLKILGEAELQLQTELLENTTIRSEISPEGEKYKPLITGEKKVQCISHEINPSAIVDSPVETKSPEFSEASPQMSLKLEGNLEEPDDLETEILQEPSGTNKDESLPCTITDVWISEEKETKETQSADRITIQENEVSEDGVSSTVDQLSDIHIEPGTNDSQHSKCDVDKSVQPEPFFHKVVHSEHLNLVPQVQSVQCSPEESFAFRSHSHLPPKNKNKNSLLIGLSTGLFDANNPKMLRTCSLPDLSKLFRTLMDVPTVGDVRQDNLEIDEIEDENIKEGPSDSEDIVFEETDTDLQELQASMEQLLREQPGEEYSEEEESVLKNSDVEPTANGTDVADEDDNPSSESALNEEWHSDNSDGEIASECECDSVFNHLEELRLHLEQEMGFEKFFEVYEKIKAIHEDEDENIEICSKIVQNILGNEHQHLYAKILHLVMADGAYQEDNDE [NEK1],solubility change mitosis (log2),HeLa Kyoto [1],-0.0529
same,solubility in G1/S (log2),HeLa Kyoto [2],-0.156
